Test results reported in the nanobody polyreactivity screen of Harvey et al. (2022).

Assay: yeast display, Sf9 membrane polyspecificity reagent, FACS + sequencing; frameworks hold sequencing errors
In short: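 Galactose induction of a Saccharomyces cerevisiae BJ5465 synthetic nanobody display library ran 36–48 hours. The cells were then stained for 1 hour at 4 °C with 10% biotinylated, detergent-solubilized Sf9 membrane reagent, pulled down on streptavidin microbeads and FACS-sorted into low and high (top ~1%) gates on expression and reagent-binding fluorescence. Labels for polyreactivity follow the gate of origin.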

| Sequence | polyreactivity (PSR sort gate) |
| --- | --- |
| QVQLVESGGGLVQAGGSLRLSCSASGSTIRDYAMGWYRQAPGKERELVAVIDNSGGRTYYADSVKGRFTISRDNAKNTVYLQMNSLKPEDTAVYYCNTRRIAQYGYWGQGTEVTVSS | high polyreactivity |
| QVQLVESGGGLVQAGGSLRLSCSASGTFYGYAMAWSRQAPGKERELVASSTWGGGRTYYADSVKGRFTTSRDNAKNTVYLQMNSLKPEDTAVYYCATRSRPQYNKYDYWGQGTQVTVSS | high polyreactivity |
| QVQLVESGGGLVQAGGSLRLSCSASGTTFRGYAMGWYRQAPGKEREVVAAISNNGVTTYYADSVKGRFTISRDNAKNTVYLQMNSLKPEDAAVYYCAAGLYHGFAASDEIRGDYWGLGTQVTVSS | low polyreactivity |
| QVQLVESGGGLVQAGGSLRLSCSATGNTLDVNARGWYRQAPGKERELVAAITSGGSTNYADSVKVRFTISRDNAKNTVYLQMNSLKPEDTAVYYCAATAALGRPEYYWGQGSQVTVSS | low polyreactivity |
| QVQLVESGGGLVQAGGSLRLSCTASGFTFFSNAMGWYRQAPVKEREFVASISRSGGRTYYADSVKGRFTISRDNEKNTVYLQMNSLKPEDTAVYYCAADVPYYLHNPRYGYWGQGTQVTVSS | high polyreactivity |
| QVQLVESGGGLVQAGGSLRLSCTASGIIFGTFAMGWYRQAPGKERELVAAISSSGVSTYYADSVKGRFTISRDNAKNTVYLQMNSLKPEDTAVYYCAAPLHYGYYYWGQGTQVTVSS | high polyreactivity |
| QVQLVESGGGLVQAGGSLRLSCTASGRIFTRNAMGWYRQAPGKERELVASISRTGTSTYYADSVKGRFTISRDNEKNNVYLQMNSLKPEDTAVYYFNARRTSVRFDYWGQGTQVTVSS | high polyreactivity |
| QVQLVESGGGLVQAGGSLRLSCTASGRTLYNYTMGWYRQAPGKERELVATINFSGGSTYYADSVKGRFTISRDNAKNTVYLQMNSLKPEDTAVYYCNARGYHYAYKGAYLGDYYWGQGTQVTVSS | low polyreactivity |
| QVQLVESGGGLVQAGGSLRLSCTASGSIFVTNAMGWYRQAPGKERELVAAITWGGGNTTYADSVKGRFTISRDNAKNTVDLQMNSLKPEDTAVYYCAKDPYVNRDYWGQGTQVTVSS | low polyreactivity |
| QVQLVESGGGLVQAGGSLRLSCVASGLTQPYAMGWYRQAPGKERELVAAISSSGGRTSYADSVKGRFTISRDNAKNTVYLQMNSLKPEDTAVYYCNVDLGVNGDYWGQGTQVTVSS | low polyreactivity |
| QVQLVESGGGLVQAGGSLRLSCVASGRIIPGNAMGGYRQAPGKESELVAAISYGGGSTYYADSVKGRFTISRDNAKNTVYLQMNSLKPADTAVYYCAAASSGEYGYWGQGTQVTVSS | low polyreactivity |
| QVQLVESGGGLVQAGGSLRLSCVASGRTFSRYAMGWYRQAPGKERELVAAISRRGGSTYYADSVKGRFTISRDNAKNTVYLQMNSLKPEDTAVYYCAAGYITWGSGNWVVTPYDYWGLGTQVTVSS | high polyreactivity |
| QVQLVESGGGLVQAGGSLRLSCVASGSIFGSYAMGWYRQAPGKERELVASISDSGGSTDYADSVKGRFTISRDNAKNTVYLQMHSLKPEDTAVYYCAADDFSGYVTEYDYWGQGTQVTVSS | low polyreactivity |
| QVQLVESGGGLVQAGGSLRLSFAASEGWYRQAPGKERELVAAISYIGGSTYYADSEKGRFTISRDNAKNTVYLQMNRLKPEDTAVYYCAKGYPDPKWGGVLAYDYWGQGTQVTVSS | low polyreactivity |
| QVQLVESGGGLVQAGGSLRLSFAASGFTFRNYAMGWYRQAPGKERELVAAISTSGGRTYYADSVKGRFTISRDNAKNTVYLEMNSLKPEDTAVYYCNAGSGSYSYRYNYWGQGTQVTVSS | high polyreactivity |
| QVQLVESGGGLVQAGGSLRLSFAASGGTFRPYAMGWYRQAPGKETELVATIRSSGGRTYYADSVKGRFTISRDNAKNTVYLQMNSLKPEDTAVYYCAKRAQTYYGYDYWVQGTQVTVSS | high polyreactivity |

| Sequence | polyreactivity (PSR sort gate) |
| --- | --- |
| QVQLVESGGGLVQAGGSLRLSFAASGGTLDVYAMGWYRQAPGKEREFVAAISWSGGRTYYADSVKGRFTISRDNAKNTVYLQMISLKPEDTAVFFCATDLYISIRYGGYYWGQGTQVTVSS | high polyreactivity |
| QVQLVESGGGLVQAGGSLRLSFAASGRIFAYYVMGWYRQAPGKARELVAAITGSGGSTYYADSVKGRFTISRDNAKNTVYLQMNSLKPEDTAVYYCNADFVWRGDYWGQGTQVTVSS | low polyreactivity |
| QVQLVESGGGLVQAGGSLRLSFAASGRIFKRNTKRWYRQAPGKETELVAAITYSGITYYADSVKGRFTISRDNAKNTFYLQMNSLKPEDTAVYYCDKVLYPIGSPRFEYWGQGTQVTVSS | low polyreactivity |
| QVQLVESGGGLVQAGGSLRLSFAASGRIFPHNAMGWYRQAPGKERELVAAISSNGGSTYYADSVKGRFTISRDNAKNTVYLQMNSLKPEDTAVYYCAKYRYFAGDGDYWGQGTQVTVSS | low polyreactivity |
| QVQLVESGGGLVQAGGSLRLSFAASGRTFDRNAMGWYRQAPGKERELVARITIDGSTNYADSVKGRFTISRDNAKNTVYLQMNSLKPEDTAVYYCATDQLSLSWYFRPYDYGYWGQGTQVTVSS | high polyreactivity |
| QVQLVESGGGLVQAGGSLRLSFAASGRTFGTNGMGWYRQAPGKEREFVAAITWNGGGTYYADSVKGRFTISRDNAKNTVYLQMNSLKPEDTSVYYSAKRTRWNYKGYGTGGYYWGQGTQVTVSS | high polyreactivity |
| QVQLVESGGGLVQAGGSLRLSFAASGRTFVINAMGWYRQAPGKERELVAAITWRGGSTYYADSVKGRFTISRDNAKNTVYLQMNSLKPEDTAVYYCAARWFPWLQLKRYDYWGQGTQVTVSS | low polyreactivity |
| QVQLVESGGGLVQAGGSLRLSFAASGRTFYYYASRWYRQAPGKERELVARIRSGGSTNYADSVKGRFTISRDNAKNTFYLQMNSLKPEDTAVYYCNALGAKGYVKGFDYRGQGTQVTVSS | low polyreactivity |
| QVQLVESGGGLVQAGGSLRLSFAASGSIFDDNAMGWYRQAPGKERELVAAITSTDSTNYADSVKGRFTISRDNAKNTVYLQMNSLKPEDTAVYYCARDIKHATSYEALYYSDYDYWGQGTQVTVSS | low polyreactivity |
| QVQLVESGGGLVQAGGSLRLSFAASGSIFIRNAMGWYRQAPGKERELVAAISIGDGSTYADSVKGRFTISRDNAKNSVYLQMNSLKPEDTAVYYCNAAGIVWRYYSYGYWGQGTQVTVSS | low polyreactivity |
| QVQLVESGGGLVQAGGSLRLSFAASGSTFKRYLMGWYRQAPGKERELVAAISSRGGSTYYADSVKGRFTISRDYANNTVYLQMISLKPEYTAVFYCATANVRAEDYWGQGTQVTVSS | high polyreactivity |
| QVQLVESGGGLVQAGGSLRLSFAATGSILLRYAMGWYRQAPGKERELVAAISYDGGGTFYADSVKGRFTISRDNAKNTVYLQMHSLKPEDTAVYYCAARVIFRVKGLEYWGQGTQVTVSS | low polyreactivity |
| QVQLVESGGGLVQAGGSLRLSFAAYGRTIRWNAMGWYRQEPGKERELVAAITSRGGSTYYADSVKGRFTISRDNAKNTVYLQMNSLKPEDTAVYYCAKQPKPPPVTGYDYWGQGTQVTVSS | high polyreactivity |
| QVQLVESGGGLVQAGGSLRLSFAPSGRTIDPNAMGWYRQAPGKERELVAAITRTGVRKYYADSVKGRFTISRDNAKNTVYLQMNSLKPEDTAVYYCAASYSGRQDRYPHYDYWGQGTQVTVSS | low polyreactivity |
| QVQLVESGGGLVQAGGSLRLSGAASGGTFSNYAMGWYRPAPGKEREVVAAIRWRGGNTYYADSVKGRFTISRDNAKNTVYLQMNSLKPEDTAVYYCAAQTHDYTRSVGTTAYDYWGQGTQVTVSS | low polyreactivity |
| QVQLVESGGGLVQAGGSLRLSGAASGRIFWYNAMGWYRQAPGKEREVVAGITSGGRTNYADSVKGRFTISRDNAKNTVYLQMNSLKPEDTAVYYCAATHSLRMYYLGQGTQVTVSS | low polyreactivity |
